Measured values published in patent CN117715654A (OXFORD BIOTHERAPEUTICS LTD, dated 2024).

Target: human CD205 (human)
Assay: cell-based or functional assay

B1: 16A5(CD205_A1), DM4-conjugated anti-CD205 (anti-LY75) monoclonal antibody (antibody, V domains shown)
VH: EVQLVESGGGLVKPGGSLRLSCAASGFTYSNAWMSWVRQAPGKGLEWVGRIKSKTDGGTTDYAAPVQGRFTISRDDSKNTLYLQMNSLKTEDTAVYYCTIFGVVSFDYWGQGTLVTVSS
VL: DVQMTQSPSSLSASVGDRVTITCRASQSISDYLSWYQQRPGKAPNLLIYAASNLKTGVPSRFSGSGSGTDFTLTISTLQPEDFATYYCQQSYRSPWTFGQGTKVEIKR
modifications: conjugated to maytansinoid DM4; attachment residues not stated
  EC50 of cytotoxicity on Raji cells (Cell-Titer Glo, 96 h): 728 pM
  EC50 of cytotoxicity on THP1 cells (Cell-Titer Glo, 96 h): 37.5 pM
